# Measured values from US20260265390A1 (SHANDONG SIMCERE BIOPHARMACEUTICAL, published 2026).
# Substitutions are numbered along the chain they refer to. “And” between values parts separate entries of the source, which are not always exact repeats. Identical values can stand only once.
# B1: JNJ7564 (bispecific antibody targeting GPRC5D and CD3, Johnson & Johnson, WO 2019220368 A1) (bispecific antibody, human IgG4 S228P, kappa, lambda, F234A L235A)
# heavy 1: not shown
# light 1: DIQMTQSPSSLSASVGDRVTITCKASQNVATHVGWYQQKPGKAPKRLIYSASYRYSGVPSRFSGSGSGTEFTLTISNLQPEDFATYYCQQYNRYPYTFGQGTKLEIKRTVAAPSVFIFPPSDEQLKSGTASVVCLLNNFYPREAKVQWKVDNALQSGNSQESVTEQDSKDSTYSLSSTLTLSKADYEKHKVYACEVTHQGLSSPVTKSFNRGEC
# heavy 2: EVQLVESGGGLVQPGGSLRLSCAASGFTFNTYAMNWVRQAPGKGLEWVARIRSKYNNYATYYAASVKGRFTISRDDSKNSLYLQMNSLKTEDTAVYYCARHGNFGNSYVSWFAYWGQGTLVTVSSASTKGPSVFPLAPCSRSTSESTAALGCLVKDYFPEPVTVSWNSGALTSGVHTFPAVLQSSGLYSLSSVVTVPSSSLGTKTYTCNVDHKPSNTKVDKRVESKYGPPCPPCPAPEAAGGPSVFLFPPKPKDTLMISRTPEVTCVVVDVSQEDPEVQFNWYVDGVEVHNAKTKPREEQFNSTYRVVSVLTVLHQDWLNGKEYKCKVSNKGLPSSIEKTISKAKGQPREPQVYTLPPSQEEMTKNQVSLTCLVKGFYPSDIAVEWESNGQPENNYKTTPPVLDSDGSFLLYSKLTVDKSRWQEGNVFSCSVMHEALHNHYTQKSLSLSLGK
# light 2: QTVVTQEPSLTVSPGGTVTLTCRSSTGAVTTSNYANWVQQKPGQAPRGLIGGTNKRAPGTPARFSGSLLGGKAALTLSGVQPEDEAEYYCALWYSNLWVFGGGTKLTVLGQPKAAPSVTLFPPSSEELQANKATLVCLISDFYPGAVTVAWKADSSPVKAGVETTTPSKQSNNKYAASSYLSLTPEQWKSHRSYSCQVTHEGSTVEKTVAPTECS
# notes: Positive control, made by reduction and reoxidation of the two monospecific antibodies
# B2: REGN5459 (bispecific antibody targeting BCMA and CD3, Regeneron, WO 2020018820 A1) (bispecific antibody, human IgG4 S228P, kappa)
# heavy 1: EVQLVESGGGLVQPGGSLRLSCAASGFTFSNFWMTWVRQAPGKGLEWVANMNQDGSEKYYVDSVKGRFTISRDNAKSSLYLQMNSLRAEDTAVYYCARDREYCISTSCYDDFDYWGQGTLVTVSSASTKGPSVFPLAPCSRSTSESTAALGCLVKDYFPEPVTVSWNSGALTSGVHTFPAVLQSSGLYSLSSVVTVPSSSLGTKTYTCNVDHKPSNTKVDKRVESKYGPPCPPCPAPPVAGPSVFLFPPKPKDTLMISRTPEVTCVVVDVSQEDPEVQFNWYVDGVEVHNAKTKPREEQFNSTYRVVSVLTVLHQDWLNGKEYKCKVSNKGLPSSIEKTISKAKGQPREPQVYTLPPSQEEMTKNQVSLTCLVKGFYPSDIAVEWESNGQPENNYKTTPPVLDSDGSFFLYSRLTVDKSRWQEGNVFSCSVMHEALHNHYTQKSLSLSLGK
# heavy 2: EVQLVESGGGLVQPGRSLRLSCAASGFTFDDYSMHWVRQAPGKGLEWVSGISWNSGSIGYADSVKGRFTISRDNAKNSLYLQMNSLRAEDTALYYCAKYGSGYGKFYYYGMDVWGQGTTVTVSSASTKGPSVFPLAPCSRSTSESTAALGCLVKDYFPEPVTVSWNSGALTSGVHTFPAVLQSSGLYSLSSVVTVPSSSLGTKTYTCNVDHKPSNTKVDKRVESKYGPPCPPCPAPPVAGPSVFLFPPKPKDTLMISRTPEVTCVVVDVSQEDPEVQFNWYVDGVEVHNAKTKPREEQFNSTYRVVSVLTVLHQDWLNGKEYKCKVSNKGLPSSIEKTISKAKGQPREPQVYTLPPSQEEMTKNQVSLTCLVKGFYPSDIAVEWESNGQPENNYKTTPPVLDSDGSFFLYSRLTVDKSRWQEGNVFSCSVMHEALHNRFTQKSLSLSLGK
# light: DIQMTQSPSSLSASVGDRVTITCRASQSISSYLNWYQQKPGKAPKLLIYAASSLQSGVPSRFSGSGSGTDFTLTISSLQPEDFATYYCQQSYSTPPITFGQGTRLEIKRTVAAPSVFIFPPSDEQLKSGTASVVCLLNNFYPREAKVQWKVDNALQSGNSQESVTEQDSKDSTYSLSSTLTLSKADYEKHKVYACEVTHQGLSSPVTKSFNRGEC
# notes: Positive control, expressed in Expi293F by the applicants; also called RGEN5459
# B3: antiFITC×CD3-Hab01 (negative control antibody, prepared internally) (bispecific antibody, human IgG4 S228P, kappa, F234A L235A)
# heavy: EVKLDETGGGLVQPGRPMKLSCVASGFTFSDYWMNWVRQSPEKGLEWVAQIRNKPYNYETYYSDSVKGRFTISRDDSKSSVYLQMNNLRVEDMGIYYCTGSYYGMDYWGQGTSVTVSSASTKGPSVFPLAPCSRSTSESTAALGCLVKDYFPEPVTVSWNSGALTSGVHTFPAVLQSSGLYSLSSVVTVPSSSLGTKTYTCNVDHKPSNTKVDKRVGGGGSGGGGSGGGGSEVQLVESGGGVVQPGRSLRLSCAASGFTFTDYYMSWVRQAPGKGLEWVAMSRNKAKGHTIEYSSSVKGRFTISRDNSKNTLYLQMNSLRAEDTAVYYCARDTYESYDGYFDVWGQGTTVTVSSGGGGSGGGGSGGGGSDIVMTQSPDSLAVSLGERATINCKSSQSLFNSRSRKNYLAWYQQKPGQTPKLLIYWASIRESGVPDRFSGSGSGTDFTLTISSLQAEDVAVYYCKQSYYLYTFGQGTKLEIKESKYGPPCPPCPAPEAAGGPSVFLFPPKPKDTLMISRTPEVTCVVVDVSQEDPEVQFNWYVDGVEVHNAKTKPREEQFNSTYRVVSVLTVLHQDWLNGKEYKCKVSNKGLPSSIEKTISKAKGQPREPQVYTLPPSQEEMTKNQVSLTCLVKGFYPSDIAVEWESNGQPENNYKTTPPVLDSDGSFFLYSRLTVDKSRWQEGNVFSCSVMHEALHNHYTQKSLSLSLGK
# light: DVVMTQTPLSLPVSLGDQASISCRSSQSLVHSNGNTYLRWYLQKPGQSPKVLIYKVSNRFSGVPDRFSGSGSGTDFTLKISRVEAEDLGVYFCSQSTHVPWTFGGGTKLEIKRTVAAPSVFIFPPSDEQLKSGTASVVCLLNNFYPREAKVQWKVDNALQSGNSQESVTEQDSKDSTYSLSSTLTLSKADYEKHKVYACEVTHQGLSSPVTKSFNRGEC
# notes: Negative control for the tumor antigens
# B4: Tri-65 anti-BCMA-GPRC5D-CD3 trispecific antibody (other)
# VHH: EVQLVESGGGLVQPGGSLRLSCAASESISSIHIMAWYRQAPGKQRELVAGIRNDGSTVYVDSVKGRFTISRDNAKNSLYLQMNSLRAEDTAVYYCNADQGFGSYSEWERRSRWGQGTTVTVSS
# VH 1: EVQLVQSGAEVKKPGASVKVSCKTSGYIFTNFGITWVRQAPGQRLEWMGENYPRRINTYYNEKFKGRVTITADKSASTAYMELSSLRSEDTAVYYCSRKDIFGLSYALDYWGQGTTVTVSS
# VL 1: DIQMTQSPSSLSASVGDRVTITCKASQNVGTNVAWYQHKPGKSPKALIYSASYQYSGVPSRFSGSGSGTDFTLTISSLQPEDVATYICQQYKNYPYTFGGGTKVEIK
# VH 2: EVQLVESGGGVVQPGRSLRLSCAASGFTFTDYYMSWVRQAPGKGLEWVAMSRNKAKGHTIEYSSSVKGRFTISRDNSKNTLYLQMNSLRAEDTAVYYCARDTYESYDGYFDVWGQGTTVTVSS
# VL 2: DIVMTQSPDSLAVSLGERATINCKSSQSLFNSRSRKNYLAWYQQKPGQTPKLLIYWASIRESGVPDRFSGSGSGTDFTLTISSLQAEDVAVYYCKQSYYLYTFGQGTKLEIK
# chain 1: ESKYGPPCPPCPAPEAAGGPSVFLFPPKPKDTLMISRTPEVTCVVVDVSQEDPEVQFNWYVDGVEVHNAKTKPREEQFNSTYRVVSVLTVLHQDWLNGKEYKCKVSNKGLPSSIEKTISKAKGQPREPQVYTLPPSQEEMTKNQVSLWCLVKGFYPSDIAVEWESNGQPENNYKTTPPVLDSDGSFFLYSRLTVDKSRWQEGNVFSCSVMHEALHNHYTQKSLSLSLG
# chain 2: B4 chain 1 with W148S, L150A, Y189V
# notes: Trispecific antibody; Asymmetric (purification method C)
# B5: Tri-66 anti-BCMA-GPRC5D-CD3 trispecific antibody (other)
# VHH: B4 VHH
# VH 1: B4 VH 1
# VL 1: B4 VL 1
# VH 2: B4 VH 2
# VL 2: B4 VL 2
# chain 1: B4 chain 1
# chain 2: B4 chain 1 with W148S, L150A, Y189V
# notes: as for B4
# B6: Tri-41 anti-BCMA-GPRC5D-CD3 trispecific antibody (other)
# VHH: EVQLVESGGGLVQPGGSLRLSCSASGFTLDYYMIGWFRQAPGKEREGLSSISPADGSTYYADSVKGRFTISRDSSKNTVYLQMNSLRAEDTAVYYCAAGNEATISWGFGPWEYDYWGQGTMVTVSS
# VH 1: EVQLVQSGAEVKKPGSSVKVSCKASGYTFTSYGISWVRQAPGQGLEWMGEIYPRSGNTYYNEKFKGRVTLTADKSTSTAYMELSSLRSEDTAVYYCARGRAYGRNYPMDYWGQGTTVTVSS
# VL 1: EIVLTQSPATLSLSPGERATLSCRASQSIGTSIHWYQQKPGQSPRLLIKYASESISGIPARFSGSGSGTDFTLTISSLEPEDFAVYYCQQSNSWPYTFGGGTKVEIK
# VH 2: B4 VH 2
# VL 2: B4 VL 2
# chain 1: EPKSSDKTHTCPPCPAPEAAGGPSVFLFPPKPKDTLMISRTPEVTCVVVDVSHEDPEVKFNWYVDGVEVHNAKTKPREEQYNSTYRVVSVLTVLHQDWLNGKEYKCKVSNKALPAPIEKTISKAKGQPREPQVYTLPPSREEMTKNQVSLWCLVKGFYPSDIAVEWESNGQPENNYKTTPPVLDSDGSFFLYSKLTVDKSRWQQGNVFSCSVMHEALHNHYTQKSLSLSPG
# chain 2: B6 chain 1 with W151S, L153A, Y192V
# notes: Trispecific antibody; Asymmetric (purification method B)
# B7: Tri-38 anti-BCMA-GPRC5D-CD3 trispecific antibody (other)
# VHH: B6 VHH
# VH 1: B6 VH 1
# VL 1: B6 VL 1
# VH 2: B4 VH 2
# VL 2: B4 VL 2
# chain 1: B6 chain 1
# chain 2: B6 chain 1 with W151S, L153A, Y192V
# notes: as for B6
# Molecular target: T1, monkey CD3, on activated monkey PBMC (monkey)
# T1 construct: whole, on cells
# Test: FACS, activated monkey PBMC
# T1 sequence (Q95LI5 22-198): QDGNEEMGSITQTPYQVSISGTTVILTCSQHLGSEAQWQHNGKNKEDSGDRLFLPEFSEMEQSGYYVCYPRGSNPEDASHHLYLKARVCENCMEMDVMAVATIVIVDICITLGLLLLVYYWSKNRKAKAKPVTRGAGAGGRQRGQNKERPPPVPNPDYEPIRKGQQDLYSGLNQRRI
row,Binder,EC50
1,B1,5.79 nM and 5.72 nM
2,B2,161 nM
3,B3,15.2 nM and 12.4 nM

# Molecular target: T2, human GPRC5D, expressed on cells (human, UniProt Q9NZD1 1-345)
# T2 construct: whole, on cells; Overexpressed on CHOK1 cells; also called CHOK1-human GPRC5D cells
# Test: FACS, CHOK1-human GPRC5D cells
# Method: (§1) Flp-inCHO-human BCMA cells and CHOK1-human GPRC5D cells were scale-up cultured in T-75 cell culture flask to the logarithmic growth phase, respectively, and the cells were pipetted to obtain a single cell suspension. After the cells were counted and centrifuged, the cell precipitate was resuspended to 2×10⁶ cells per milliliter with a FACS buffer (PBS+2% fetal bovine serum). The suspension was added to a 96-well FACS reaction plate at 50 μl/well. 8 concentrations of the anti-BCMA-GPRC5D-CD3 antibodies or control antibodies were added at 50 μl/well, wherein gradient dilution was performed at a dilution ratio of 5 from a concentration of 100 nM. The cells were incubated at 4° C. for 1 h. The obtained mixture was centrifuged and washed 3 times with a PBS buffer. […] The obtained mixture was centrifuged and washed 3 times with a PBS buffer. 100 μl of the mixture was taken for detection and result analysis by FACS (FACS Canto™, purchased from BD Company). Data analysis was performed by software (FlowJo) to obtain the mean fluorescence intensity (MFI) of the cells. Then, a software (GraphPad Prism8) was used for analysis, data fitting and EC50 calculation.
# T2 sequence (Q9NZD1 whole entry): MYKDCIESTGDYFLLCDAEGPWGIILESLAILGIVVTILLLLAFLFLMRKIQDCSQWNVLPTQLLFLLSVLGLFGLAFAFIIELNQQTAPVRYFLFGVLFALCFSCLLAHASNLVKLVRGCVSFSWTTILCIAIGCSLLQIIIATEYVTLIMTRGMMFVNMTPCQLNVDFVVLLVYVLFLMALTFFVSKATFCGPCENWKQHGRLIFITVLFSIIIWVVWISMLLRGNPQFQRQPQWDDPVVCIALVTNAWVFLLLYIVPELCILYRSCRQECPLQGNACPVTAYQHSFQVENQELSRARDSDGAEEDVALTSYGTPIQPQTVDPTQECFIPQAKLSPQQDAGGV
row,Binder,EC50 [nM]
1,B4,1.66
2,B5,1.53
3,B6,4.3
4,B7,2.06

# Molecular target: T3, human BCMA (B cell maturation antigen), expressed on cells (human, UniProt Q02223 1-184)
# T3 construct: whole, on cells; Overexpressed on Flp-in CHO cells; also called Flp-inCHO-human BCMA cells; CD269
# T3 sequence (looked up): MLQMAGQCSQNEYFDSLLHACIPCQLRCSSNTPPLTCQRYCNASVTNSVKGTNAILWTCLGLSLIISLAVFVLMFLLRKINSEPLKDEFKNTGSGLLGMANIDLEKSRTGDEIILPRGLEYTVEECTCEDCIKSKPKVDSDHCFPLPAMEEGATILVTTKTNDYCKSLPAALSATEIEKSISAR
# Test: FACS, Flp-inCHO-human BCMA cells
# Method: as §1
row,Binder,EC50 [nM]
1,B4,2.54
2,B5,1.09
3,B6,1.52
4,B7,4.43
